Substrate in this data set: N[C@@H](CC(=O)O)C(=O)O
Description: GLOX/HRP-coupled enzyme kinetics. The class given is biochemical, Homo sapiens. The conditions noted are these: PLP.

The values that follow come from PMC6487875.

B1: GOT1 (glutamate oxaloacetate transaminase 1, aspartate aminotransferase 1) (Homo sapiens) (protein)
chain: APPSVFAEVPQAQPVLVFKLTADFREDPDPRKVNLGVGAYRTDDCHPWVLPVVKKVEQKIANDNSLNHEYLPILGLAEFRSCASRLALGDDSPALKEKRVGGVQSLGGTGALRIGADFLARWYNGTNNKNTPVYVSSPTWENHNAVFSAAGFKDIRSYRYWDAEKRGLDLQGFLNDLENAPEFSIVVLHACAHNPTGIDPTPEQWKQIASVMKHRFLFPFFDSAYQGFASGNLERDAWAIRYFVSEGFEFFCAQSFSKNFGLYNERVGNLTVVGKEPESILQVLSQMEKIVRITWSNPPAQGARIVASTLSNPELFEEWTGNVKTMADRILTMRSELRARLEALKTPGTWNHITDQIGMFSFTGLNPKQVEYLVNEKHIYLLPSGRINVSGLTTKNLDYVATSIHEAVTKIQ
By Km is commonly meant the concentration of substrate that gives half-maximal velocity. With B1, the Km was 4 mM.
